Measured values published in the DeepSol protein solubility set.

assay: soluble on expression in E. coli; label from the status in PepcDB or PDB records

Sequence | soluble on expression in E. coli
MGSDKIHHHHHHMKELENYYGRLFTKYQLTAKEREIAEKVPSITKKNNCFRCGTTFKEENKLPNDAYYCRACLLLGRVRSDEKLYHFPQKDFPITKCLKWKGQLTDWQQRISDGLVANVENNRATLVHAVTGAGKTEMIYHTVASVIDKGGAVCLASPRIDVCIELYKRLQNDFSVPISLLHGESEPYFRTPLVVATTHQLLKFYQAFDLVLIDEVDAFPYADNPMLYQAADNAVKEAGVQVFLTATSTDELDKKVRTGKLSRLSLPRRFHGNPLVVPQKVWFSKFDDTLKKNRLVPKLKKAIEEQRKSGFPLLIFVPEISKGQEFTKIMKKTFPEETIGFVSSQTENRLEIVEGFRKREITVLISTTILERGVTFPCVDVFVVQANHYLYTASSLVQIAGRVGRSIERPTGLLQFYHEGSTGAIEKAIAEIKQMNKEAGYV | not soluble
MSLIKLVAIDLDGTLLNSQKEISLRNKQALMAAKQAGVKVVICTGRPLAAIGPYLEELGLQDEGDYSITFNGGLVQKNDTGAIIEKTLMPLEAIHELYQLATTLNMPFDVLSDEVVMQLPSAPNYPSIYSSLNKLLTFESYKLEELTPNRIYNKVVVAIDEAYLNERIKEIPASFYERFEIIKTRNNLLEFMPKGITKAYGISLLAKDLGIRAEEIMTLGDEENDLPMIEYAGLGVAMANAIPLVKEAADVVTDTNDQDGVAKAVEKYILTPLEGGEGHHHHHH | soluble
MMKVLAFDTSSKALSVAVLNNMECLATVTINIKKNHSINLMPAIDFLMQSIDLEPQDLDRIVVAEGPGSYTGLRVAVATAKMLAYTLKIDLVGVSSLYALTNGFSENDLLVPLIDARRNNVYVGFYQNGDTVKPDCHTSLEEVLQEVGNKANVHFVGEVAAFFDQIKKALPHAKITETLPCAVAIGRKGQKMKSVNVDAFVPRYLKRVEAEENWLKNHCETNTEEYIKRVLEHHHHHH | not soluble
MGSDKIHHHHHHMFKKIVLHGWRQFRNVDIDFHPRLTVLTGANGAGKTTLLNLVSRHFGWDGSFISTPVPRRSNPSLMYSTDFWDIDDIQVDIIHSFEREQNRKKQAAAQGSQTTIGKIIYGDGTETLITVPNSEVGSRYDVSIPARQRIDGLHIPSHRAPSTYQQVQNIPTIPRRRQEVFNQYLSLVQSRYLGSYTQWSPQYYMKETLISLATFGYGNAVVDADPESARLFEGFQEILRKMLPPKLRFKRLQIRVPEVILETETGNFSIDALSGGAAAVIDLAWQVFMYEPSESEFVVTLDEPENHLHPELQQRVLADLLTAFPSVQFVVATHSPFIVGSVPHSHVYVLGYDDSRRVNSTLLDTVNKTGTANEILRDVLGLEFTIPVWVENRLENLIEKYSKKDFTEDNLMMLRQEMTSLGLGKHVPQTISMLAQKKDGQ | not soluble
MAHHHHHHMQSTGGLPFYGNLYAGRVDSQNYVPPRQGGSGLLEVDKSLWDNPATRQKLQSCPYFALSDQVMFHNMDPVYLDPGLLSPEEHQLLLLFSRAYYEKWSVIHRRPPHALPRLRITYGSSKLLDEILFLLDVHPDVCEVLKKEYAVDDSTLIGMNPNLWSSAYLDPANMDHLSGRVLEFAGVPEPKRTKFFLLLDQMRRIKVHRRDLPNSEERVDVVPFCYGVTLYDFCKFLGITPYSGQLKVYDYVDLQGTARSETLKDEDSYFDYLVALFYRADVRSATLTDLADASDHTCRYTVTVEPFTTADRRVGRWF | soluble
GILAEAHGTRPDLTDQPLPDADHTWYTDGSSLLQEGQRKAGAAVTTETEVIWAKALPAGTSAQRAELIALTQALKMAEGKKLNVYTDSRYAFATAHLTSEGKEIKNKDEILALLKALFLPKRLSIIHCPGHQKGHSAEARGNRMADQAARKAAITETPDTSTLL | soluble
MKPKLAQWKELLAARHKKENDEEKEEEKPDGRPVTDVPYADVWREYGAKPYWFAGDYCLIRETVYPLDYQHGRYRLGALYEVHERWQEAPFSHPLSCRGFAVRDLFFFDTETMGLSSGAGNIMFLLGHARILGDFVTIRQHLLPYPGAEVALYQSFLSDVDYTTLVTYNGKAFDWPRLKTRHALVRNMVPKLPAFGHFDLYHAARRLWKDKLDSLRLSEVERHILHVERGDDVPGFLAPMMYKEFLQTPHPDRLMPVLRHNERDVLSLIALYIHLSVQLLEADRLADPKEQLAAARWFEAVGETAAARGVYEEASGKGAKEAQAAKWQLSLLYRKEKRYEEAALLWRDLLIHGNGYWKAKAGLELAKVYEHYFRDAAEAHRYAVMAYEAWRSLARMSRQHSEKEEAEWRRRLARLERKKNG | not soluble
MGSDKIHHHHHHMNRTQLSQLAVLSAVAAHGSFRGAAKELGIAPSAVSHAVGSLEASLGVRLLARTTRSVAATEEGKRLLERLRPALDDIAEALQRAAEARDRPAGKLRITAPRFAADLILAPRLGDFLGRYPDTVLEIANEDGFTNIVEEGYDAGIRLGESLEADMVAVKVGPELKSAVVAAPSYFERFQRPRHPRDLAGHRCIRRRFSNGTIYRWEFEKEGEELTVSVNGPLILGEDRPIIEAATGGAGLAYLFEPRVSGYVAEGKLVRVLEDWCAPYAGPFLYYPTRRLMRPALRAFIDFFRHSG | not soluble
MSATETITTNARVLGADPLVKDGFGEEDMLTLVLPYIKTAREGVLRLGELLETYGTYESNGIAFADTEEIWWLKTIGGHNWIARRVPDDAYVTNPNQLGIDHYEFENPDDYLASPDIRDFINKHHLDLTYSNEHFNPRYAFGSQRDKDHHYNTPRARAM | soluble
MLFIIKYYEPKNLYEHILFILKHLCRSKSMILNPQKLSVDFGNGITATEPIIPRRYTLTHSDITAKLFLNIGLTYAYNKMTTMRDEVLGEWVKKSQDYSYQVFLHVDGRLGPKTTAIRNKIFRRELPLALEAIRYGDKRFFNAHPYLDNAPITVFFISTNPNFNKIENWGTFSDYNIESYYRNYKNVYLLDRKVGDVTGDDIPDTVSLYGEKEAPSEIFADDITVIITDGSTGNTTTITPEFNSGYNPTIFLGDFTKNRVYDIKISIDSGGSGGYGFFYIYSFMENTFREIFNFDAYNKEYKYKVDYDDLYKVNVGAITLNKLFILDISYKGYDVLSQYYYENGKLIKPVDGDVLALGALVPIVSNELLDFYNLLAFQRIIGTYNADTLGYVQNLLSWDGKNFTPSSTFVNISGSSLISPYLEHHHHHH | not soluble
MSLKQERQEKIEVLKEFKDDGATKFSSYYFDLKKNQILSSGSLTTSWRVIDFSEVLSYQVNRNGHLEQKHHGIARAVTGGIMAGGVGAIVGTTTGENTDYIDHLGLVINLSDGTNFEVKFLKTKTKTNSFTVKTAEGELRSLISIVQSGMNKAQEKAEQEQTKANTIKIESNADPAEEIRKFKKMADEGIISNEEFEAKKKQLLNLQEGHHHHHH | soluble
MAINLQTLFKKKREGKKITMVSTYDYWSAKLCDEVGIDCILVGDSLGTVVKGEGDTLSVTLEEIIYHTKCVMRGVKNAFVIADMPFMSYQVSMEKAVENCGRVIKETKAKAVKLEGGEEIAELVYKLTRIGIPVVGHVGFTPQHINVFGKPKVVGKKKEEEEKLRRDFRALEEAGAFMIVLESVPTHLAKELWKGSNSIVIGIGAGKYVDGQVLVFHDIVGLFEDFKPKFVRRYLEGAKLVKEALKNFKIDVEGGNFPSEEESYG | not soluble
MSLSNIAVSEKDLQRFCRDLLKQSLPDEEAEVIAETLVDADLRGVTSHGVQRVAGYLKRMEDGIIERKTDISVVQDSFATALLDANNGWGQVAGVKAMEMAIQKAGQYGTSFVGVSNSNHFGTASFYTRMAAEKGFIGISMTNASPIMVPFGAKEPSLGPNPISISIPAGEGKKPIILDMSTSNVARGKIMVAKKNKESIPEGWAITKDGKQTTDADEAWEGFVLPMGPKGSGLAIIIDILSGVLTGSLFGKRIPRQYDDPYPQQLGHLFGAINIENFGEPELFYQNVLEKIEETISSEPSEGFDQVYMPGDMESQRKKEYKENGIPLSQEIINELRKTGEKYGVDLEHYLSQNKQREGHHHHHH | soluble
PVKVVVGKTFDAIVMDPKKDVLIEFYAPWCGHCKQLEPIYTSLGKKYKGQKDLVIAKMDATANDITNDQYKVEGFPTIYFAPSGDKKNPIKFEGGNRDLEHLSKFIDEHATKRSRTKEEL | soluble
MIHSLFLINCSGDIFLEKHWKSVVSQSVCDYFFEAQEKAADVENVPPVISTPHHYLISIYRDKLFFVSVIQTEVPPLFVIEFLHRVADTFQDYFGECSEAAIKDNVVIVYELLEEMLDNGFPLATESNILKELIKPPTILRSVVNSITGSSNVGDTLPTGQLSNIPWRRAGVKYTNNEAYFDVVEEIDAIIDKSGSTVFAEIQGVIDACIKLSGMPDLSLSFMNPRLLDDVSFHPCIRFKRWESERVLSFIPPDGNFRLISYRVSSQNLVAIPVYVKHSISFKENSSCGRFDITIGPKQNMGKTIEGITVTVHMPKVVLNMNLTPTQGSYTFDPVTKVLTWDVGKITPQKLPSLKGLVNLQSGAPKPEENPSLNIQFKIQQLAISGLKVNRLDMYGEKYKPFKGVKYVTKAGKFQVRT | soluble
MGSDKIHHHHHHMHSDEEIFKETTPKALLQLLKKDYYFHDYCYQEIIPRGKEIKMNNSKGFQIYLVESGYFSYCLQNEYGDSGIISFVGGEIAINLIPIIKEEPEESVLRSLTEVHCWVLDPDFVERVLDESGQKAKYLLSNLLYTRKVYFKASKRNFMKKELRIRACLKELGLYMGRVTKEKEFILPDEINNSILAQYANTTREYTNIIVLKLRKEGILDDSHKPWVIKKIDIL | not soluble
MGHHHHHHMPVVDSDGDAVQLNLGGNYPLYTIQSAAIGFRGGLSTLRKDACKSYVYEAPETDRGLPVGFSASATSQPVMQLGSRYKFSFSMPVPLICDTAWSIGKSETNGGISFQPITAGDYFYLNNFSWFEARSTEETGVYKLAACSCEFCKIACPEVGSFNVNGRTLLGIGGEHFTVQFQKFD | soluble
MNIEQQLYDVVKQLIEQRYPNDWGGAAAIRVEDGTIYTSVAPDVINASTELCMETGAILEAHKFQKKVTHSICLARENEHSELKVLSPCGVCQERLFYWGPEVQCAITNAKQDIIFKPLKELQPYHWTEAYHDEMVKEWSTR | soluble
MEPRTIACPHKGCTKMFRDNSAMRKHLHTHGPRVHVCAECGKAFVESSKLKRHQLVHTGEKPFQCTFEGCGKRFSLDFNLRTHVRIHTGDRPYVCPFDGCNKKFAQSTNLKSHILTHAKAKNNQ | soluble
MMKNMARKNQKAPWEEEEEIIWVSRTELKNDMLALQKLGEELVELKPSALAKFPLPEDLAEAIKDAQRFKNEARRRQLQYIGKLMRHIDPEPLQAALDKLRNKHSQTTALLHKLEQLRDRIVAEGDSAIEVAMEQYPEADRQRLRLLARQASKEKAGNKPPKSSREIFQLLKEAMLAKQEIEEESEDDLDSAE | not soluble
GMKTLCTHSLPKEKMPYLLRSGEGERYLFGRQVATVMANGRSTGDLFEIVLLSGGKGDAFPLHVHKDTHEGILVLDGKLELTLDGERYLLISGDYANIPAGTPHSYRMQSHRTRLVSYTMKGNVAHLYSVIGNPYDHAEHPPYASEEVSNERFAEAAAVADIVFLDEAKPACSAKLAELTELPDGAVPYVLESGEGDRLLTGDQLHRIVAAQKNTDGQFIVVSSEGPKGDRIVDHYHEYHTETFYCLEGQMTMWTDGQEIQLNPGDFLHVPANTVHSYRLDSHYTKMVGVLVPGLFEPFFRTLGDPYEGHIFPCEPQALRFDRILQNIEALDLKVMKP | soluble
MSHCSCHDKPQHSLLPAAYRILSITRHTPLEWNFRVAVDFPAHWGQFVEVSLPRVGEAPISVSDYGDGWIDLLIRNVGKVTSALFTLKEGDNVWLRGCYGNGYPVDTLRHKPLLVVAGGTGVAPVKGLMRYFVENPQEIGQLDMILGYKNRDCVLYKEEMATWRGKHNLVLTLDEGEADDRYQIGRVTDRLADMTLSDIDTMQAIVVGPPIMITFTVKMLLQKGLKPEQIWVDYERRMACSVGKCGHCRMGEVYVCTDGPIFNYAVAQRFAD | not soluble
